Literature values in publication PMC2981439.

Biological target: quinone MADH (Paracoccus denitrificans) (UniProt P22619)
UniProt P22619, sequence (P22619 58-188, chain 1 of 2): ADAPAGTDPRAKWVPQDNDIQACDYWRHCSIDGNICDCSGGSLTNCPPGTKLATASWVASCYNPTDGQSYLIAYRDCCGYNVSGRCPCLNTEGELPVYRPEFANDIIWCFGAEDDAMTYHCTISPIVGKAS
UniProt P22619, sequence (P29894 29-417, chain 2 of 2, further chain): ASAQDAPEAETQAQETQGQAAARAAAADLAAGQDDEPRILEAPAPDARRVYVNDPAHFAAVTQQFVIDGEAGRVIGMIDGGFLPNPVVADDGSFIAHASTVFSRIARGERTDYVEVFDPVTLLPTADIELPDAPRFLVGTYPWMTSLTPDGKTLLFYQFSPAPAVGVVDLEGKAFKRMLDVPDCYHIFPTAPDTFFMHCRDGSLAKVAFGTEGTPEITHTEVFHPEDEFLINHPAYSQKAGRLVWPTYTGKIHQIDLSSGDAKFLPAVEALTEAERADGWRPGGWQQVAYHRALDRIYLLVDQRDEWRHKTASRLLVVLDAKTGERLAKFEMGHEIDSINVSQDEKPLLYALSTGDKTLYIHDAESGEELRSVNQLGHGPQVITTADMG

Substance: MauG (from UniProt Q51658)
- Kd: 10.1 µM
